Experimental data from the supplement of paper PMC10126150.
± gives the standard deviation of the averaged measurements.

Tested on: ATP
Test: switch fluorescence ratio, 500 uM ATP over buffer (Cy3 cluster intensity, sum of 5 cycles each) (fold (ratio)); higher = stronger signal-on switching upon ATP binding; sequences stand for … in TCGTCGGCAGCGTCAGATGTGTATAAGAGACAGTTTTTTTTTTTTTTTTTTTTTTTTT…TC
Settings: aptamer strand: ATP DNA aptamer (quencher-CACCTGGGGGAGTATTGCGGAGGAAGG + anchor), 100 nM annealed; ATP concentration: 500 uM
Summary of the method: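 Per cluster, summed Cy3 intensity from the target cycles was divided by that from the buffer cycles to give the fluorescence ratio, then averaged per switch-domain sequence. Clusters outside 100-1000 RFU were excluded. The Cy3-labelled switching-strand clusters, on a modified Illumina MiSeq flow-cell, were annealed to 100 nM quencher-labelled ATP aptamer and imaged in selection buffer, then after 15 min with 500 uM ATP at 22 °C, for five cycles with NaOH stripping and re-annealing between them.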
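Also: ATP exposure 15 min at 22 °C before imaging.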

| Sequence | switch fluorescence ratio |
| --- | --- |
| ACGGTAAACT | 1.18 ± 0.065 |
| ACGGTAACGC | 1.02 ± 0.011 |
| ACGGTAAGGA | 1.098 ± 0.0091 |
| ACGGTAGTTG | 0.9851 ± 0.009 |
| ACGGTATGGG | 1.07 ± 0.046 |
| ACGGTCGCGT | 1 ± 0.012 |
| ACGGTCTCGG | 1.01 ± 0.025 |
| ACGGTGAGGT | 1.02 ± 0.016 |
| ACGGTGGAGA | 1.05 ± 0.015 |
| ACGGTGGAGT | 1.02 ± 0.054 |
| ACGGTGGCGT | 1.02 ± 0.016 |
| ACGGTGGTCA | 1.023 ± 0.0092 |
| ACGGTGGTGG | 1.12 ± 0.12 |
| ACGGTGTAGG | 1.11 ± 0.12 |
| ACGGTGTCAC | 0.9774 ± 0.0012 |
| ACGGTGTTAC | 1.11 ± 0.027 |
| ACGGTTAGTG | 1.01 ± 0.018 |
| ACGTAATAGC | 2.07 ± 0.13 |
| ACGTACGGGT | 1.46 ± 0.12 |
| ACGTAGTCAT | 1.04 ± 0.03 |
| ACGTATCTCT | 1.17 ± 0.11 |
| ACGTATGGGC | 1.082 ± 0.0027 |
| ACGTATTTGT | 1.11 ± 0.013 |
| ACGTCAAAGG | 1.37 ± 0.51 |
| ACGTCCATTT | 1.06 ± 0.011 |

| Sequence | switch fluorescence ratio |
| --- | --- |
| ACGTCCTGCT | 1.07 ± 0.011 |
| ACGTCTACGC | 1.101 ± 0.0031 |
| ACGTCTAGTG | 0.965 ± 0.023 |
| ACGTCTTTGT | 1 ± 0.088 |
| ACGTGATTCA | 1.03 ± 0.074 |
| ACGTGCACGA | 1.01 ± 0.015 |
| ACGTGCAGTG | 0.9525 ± 0.0085 |
| ACGTGCGCAG | 1.07 ± 0.018 |
| ACGTGCTCGG | 1.007 ± 0.01 |
| ACGTGGCACA | 1.053 ± 0.0084 |
| ACGTGTGCGG | 0.959 ± 0.031 |
| ACGTGTGTGG | 0.989 ± 0.017 |
| ACGTTAATGA | 1.121 ± 0.002 |
| ACGTTCAGGG | 1.05 ± 0.059 |
| ACGTTGAGGG | 1.06 ± 0.049 |
| ACGTTGGACA | 1.12 ± 0.05 |
| ACGTTGGCGG | 1 ± 0.013 |
| ACGTTGTGGA | 1.027 ± 0.0075 |
| ACGTTTGGTG | 0.962 ± 0.03 |
| ACGTTTTTGT | 1.027 ± 0.0097 |
| ACGTTTTTTG | 0.99 ± 0.015 |
| ACTAAAAAGA | 1.07 ± 0.056 |
| ACTAAAGAGC | 1.12 ± 0.2 |
| ACTAAATCCT | 1.19 ± 0.02 |
| ACTAACTTTC | 1.1 ± 0.097 |

| Sequence | switch fluorescence ratio |
| --- | --- |
| ACTAAGAGTT | 1.03 ± 0.056 |
| ACTAATACGA | 2.41 ± 1.8 |
| ACTAATCGAA | 1.05 ± 0.013 |
| ACTAATGCTT | 1.01 ± 0.034 |
| ACTAATGTAT | 1 ± 0.014 |
| ACTAATTATT | 1.03 ± 0.021 |
| ACTACAGGCT | 1.026 ± 0.0035 |
| ACTACGATGG | 1.05 ± 0.018 |
| ACTACGCTTG | 1.29 ± 0.022 |
| ACTAGAAATG | 0.984 ± 0.017 |
| ACTAGAGCCA | 0.982 ± 0.011 |
| ACTAGGCAAT | 1.96 ± 0.27 |
| ACTAGGGGGA | 0.986 ± 0.023 |
| ACTAGGTATG | 1.01 ± 0.032 |
| ACTAGTAGGG | 1 ± 0.0095 |
| ACTAGTCGGA | 1.03 ± 0.028 |
| ACTATAATCA | 1.04 ± 0.026 |
| ACTATAGTAT | 1 ± 0.057 |
| ACTATGAACC | 1.051 ± 0.0016 |
| ACTATGATAT | 1.018 ± 0.0073 |
| ACTATGGAGC | 1.07 ± 0.077 |
| ACTATGGGGA | 1.01 ± 0.0026 |
| ACTATGTGTG | 0.99 ± 0.031 |
| ACTATTCGCT | 1.02 ± 0.01 |
| ACTATTCGGC | 0.982 ± 0.02 |

| Sequence | switch fluorescence ratio |
| --- | --- |
| ACTATTGGGG | 0.989 ± 0.011 |
| ACTCAATTAG | 1.025 ± 0.01 |
| ACTCAATTAT | 1.02 ± 0.042 |
| ACTCAGTTCT | 1.03 ± 0.016 |
| ACTCATGGCA | 1.09 ± 0.046 |
| ACTCATTTC | 1.03 ± 0.047 |
| ACTCATTTTA | 1.02 ± 0.024 |
| ACTCGAAAAA | 1.04 ± 0.026 |
| ACTCGATTTT | 1.02 ± 0.033 |
| ACTCGGCCC | 1.23 ± 0.015 |
| ACTCGGCGGT | 2.14 ± 1.7 |
| ACTCGGCTTG | 1.03 ± 0.023 |
| ACTCGGGTGG | 1.019 ± 0.0096 |
| ACTCTATACA | 1.11 ± 0.088 |
| ACTGAAGGGG | 1.02 ± 0.059 |
| ACTGAATTGG | 1.001 ± 0.0029 |
| ACTGAGGAT | 0.9994 ± 0.003 |
| ACTGAGGGGA | 1 ± 0.08 |
| ACTGAGTTGG | 0.986 ± 0.013 |
| ACTGATTTTA | 1.01 ± 0.056 |
| ACTGCAGAGG | 1.08 ± 0.034 |
| ACTGCGGGTC | 1.031 ± 0.0063 |
| ACTGCTAATT | 1.08 ± 0.039 |
| ACTGCTAGGG | 1.02 ± 0.013 |
| ACTGGAGGGT | 1.02 ± 0.044 |

| Sequence | switch fluorescence ratio |
| --- | --- |
| ACTGGCATTG | 1.02 ± 0.044 |
| ACTGGCCCCG | 1.34 ± 0.41 |
| ACTGGCTCCT | 1.02 ± 0.056 |
| ACTGGGAAG | 1.05 ± 0.064 |
| ACTGGGCCGT | 1.01 ± 0.046 |
| ACTGGGGCCA | 0.972 ± 0.047 |
| ACTGGGGCCG | 1.01 ± 0.056 |
| ACTGGGGGTA | 1.01 ± 0.025 |
| ACTGGGTATT | 0.963 ± 0.061 |
| ACTGGTAACG | 1.02 ± 0.024 |
| ACTGGTATA | 0.994 ± 0.032 |
| ACTGTAAATT | 1.086 ± 0.0031 |
| ACTGTAGGGC | 1.04 ± 0.04 |
| ACTGTGCGCC | 1.01 ± 0.029 |
| ACTGTGGGGT | 0.996 ± 0.022 |
| ACTGTTATGA | 1.08 ± 0.058 |
| ACTGTTATGG | 1.066 ± 0.0077 |
| ACTGTTGGGG | 0.999 ± 0.02 |
| ACTTAATAAC | 1.03 ± 0.013 |
| ACTTAATTTG | 1 ± 0.044 |
| ACTTACAGCT | 1.19 ± 0.017 |
| ACTTAGCAA | 1.92 ± 0.092 |
| ACTTAGTTAA | 1.02 ± 0.015 |
| ACTTATCATT | 1.04 ± 0.013 |
| ACTTATCCTT | 1.0512 ± 0.00011 |

| Sequence | switch fluorescence ratio |
| --- | --- |
| ACTTATGCAT | 1.055 ± 0.0046 |
| ACTTCACTCG | 1.42 ± 0.098 |
| ACTTCCGTTC | 1.35 ± 0.017 |
| ACTTCGGGTA | 1.003 ± 0.0017 |
| ACTTCGTATG | 1.03 ± 0.011 |
| ACTTGCACGT | 1.175 ± 0.0094 |
| ACTTGCTTAC | 2 ± 0.022 |
| ACTTGGAGCG | 1.018 ± 0.0092 |
| ACTTGTAATG | 0.989 ± 0.049 |
| ACTTGTGGGG | 0.973 ± 0.037 |
| ACTTGTTGCG | 0.989 ± 0.056 |
| ACTTTAGGGA | 0.974 ± 0.019 |
| ACTTTCTGAC | 1.22 ± 0.24 |
| ACTTTGCATT | 1.19 ± 0.038 |
| ACTTTGGCC | 1.0113 ± 0.00058 |
| ACTTTGGGGA | 1.033 ± 0.0065 |
| ACTTTGGTAT | 0.982 ± 0.029 |
| ACTTTTACA | 1.155 ± 0.0053 |
| ACTTTTTGTG | 1 ± 0.013 |
| AGAAAAAATG | 0.974 ± 0.05 |
| AGAAAAACGG | 1.12 ± 0.25 |
| AGAAAAATGG | 0.998 ± 0.02 |
| AGAAAAGGGT | 0.997 ± 0.03 |
| AGAAAAGGTT | 0.98 ± 0.021 |
| AGAAACAAGG | 0.979 ± 0.027 |

| Sequence | switch fluorescence ratio |
| --- | --- |
| AGAAACGTAT | 1.13 ± 0.013 |
| AGAAAGACTT | 1.04 ± 0.047 |
| AGAAAGAGGA | 0.987 ± 0.023 |
| AGAAAGGGCC | 0.966 ± 0.055 |
| AGAAAGGTCT | 1.026 ± 0.0085 |
| AGAAATATAT | 1.23 ± 0.35 |
| AGAAATGATA | 1.001 ± 0.0019 |
| AGAAATTAGT | 1.03 ± 0.015 |
| AGAAATTCGA | 1.03 ± 0.012 |
| AGAACACAGT | 1.006 ± 0.0014 |
| AGAACATTGG | 0.985 ± 0.013 |
| AGAACCTTCG | 3.17 ± 0.38 |
| AGAACGGTGG | 0.9693 ± 0.0096 |
| AGAACTGTAA | 1.08 ± 0.034 |
| AGAACTTTTT | 0.98 ± 0.011 |
| AGAAGATGCT | 0.9797 ± 0.0088 |
| AGAAGATGTG | 0.973 ± 0.059 |
| AGAAGATTGG | 0.9723 ± 0.0053 |
| AGAAGCCCCC | 1.02 ± 0.048 |
| AGAAGGATGG | 0.983 ± 0.026 |
| AGAAGGATTA | 1 ± 0.017 |
| AGAAGGGCCC | 0.9967 ± 0.0016 |
| AGAAGGGGCG | 1.02 ± 0.06 |
| AGAAGGGGTT | 1.04 ± 0.053 |
| AGAAGGTCGG | 1.01 ± 0.036 |

| Sequence | switch fluorescence ratio |
| --- | --- |
| AGAAGTGCGG | 0.984 ± 0.032 |
| AGAATAAGTT | 1.013 ± 0.0018 |
| AGAATATTAG | 0.987 ± 0.037 |
| AGAATATTGG | 0.982 ± 0.046 |
| AGAATCAGGC | 1.04 ± 0.17 |
| AGAATCCAGC | 0.982 ± 0.021 |
| AGAATCCGGG | 0.97 ± 0.041 |
| AGAATCGGCA | 0.997 ± 0.031 |
| AGAATGCACG | 0.957 ± 0.035 |
| AGAATGGCTT | 1 ± 0.041 |
| AGAATGGTCG | 1.03 ± 0.03 |
| AGAATGTGC | 0.9956 ± 0.0047 |
| AGAATTATCT | 1 ± 0.024 |
| AGAATTTGCG | 0.974 ± 0.018 |
| AGACAAAGA | 0.967 ± 0.022 |
| AGACAAAGCG | 1.03 ± 0.035 |
| AGACAATATT | 0.979 ± 0.032 |
| AGACAATTCA | 1.02 ± 0.019 |
| AGACACATCC | 1.11 ± 0.022 |
| AGACAGAGGG | 0.988 ± 0.012 |
| AGACAGCAGC | 1.05 ± 0.011 |
| AGACCGGGGA | 0.989 ± 0.033 |
| AGACCGTTCG | 1.02 ± 0.0066 |
| AGACCTAGAC | 1.05 ± 0.025 |
| AGACCTTTTA | 1 ± 0.063 |
